T1: Boi1 SH3 (BOI1_YEAST), P38041
T1 chain: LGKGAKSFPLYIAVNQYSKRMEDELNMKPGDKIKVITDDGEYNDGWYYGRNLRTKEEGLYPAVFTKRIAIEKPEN

T2: Boi2 SH3 (BOI2_YEAST), P39969
T2 chain: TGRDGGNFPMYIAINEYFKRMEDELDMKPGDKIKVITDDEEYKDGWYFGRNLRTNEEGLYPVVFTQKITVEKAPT

T3: Myo5 SH3 (MYO5_YEAST), Q04439
T3 chain: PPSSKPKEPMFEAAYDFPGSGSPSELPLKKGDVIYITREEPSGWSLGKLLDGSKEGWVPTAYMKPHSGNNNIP

T4: Rvs167 SH3 (RV167_YEAST), P39743
T4 chain: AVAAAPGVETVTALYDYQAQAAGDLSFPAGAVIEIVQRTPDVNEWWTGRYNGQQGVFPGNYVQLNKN

T5: Yfr024 SH3 (LSB3_YEAST), P43603
T5 chain: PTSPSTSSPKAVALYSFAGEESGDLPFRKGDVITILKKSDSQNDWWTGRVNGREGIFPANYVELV

T6: Yhr016c SH3 (YSC84_YEAST), P32793
T6 chain: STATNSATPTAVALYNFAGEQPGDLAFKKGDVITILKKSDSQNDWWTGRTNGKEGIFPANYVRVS


Columns and labels:
Assay in all cases: SPOT array
[1] = target: T1, Boi1 SH3 (BOI1_YEAST), P38041
[2] = target: T2, Boi2 SH3 (BOI2_YEAST), P39969
[3] = target: T3, Myo5 SH3 (MYO5_YEAST), Q04439
[4] = target: T4, Rvs167 SH3 (RV167_YEAST), P39743
[5] = target: Sho1 SH3 (SHO1_YEAST), P40073
Chain of Sho1 SH3 (SHO1_YEAST), P40073 (P40073 295-366): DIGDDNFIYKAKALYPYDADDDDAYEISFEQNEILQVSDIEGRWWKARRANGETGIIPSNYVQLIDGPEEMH

[6] = target: T5, Yfr024 SH3 (LSB3_YEAST), P43603
[7] = target: T6, Yhr016c SH3 (YSC84_YEAST), P32793

| Binder | normalised SPOT signal, Boehringer light units (BLU); mean over the file's lines of this peptide [1] | normalised SPOT signal, Boehringer light units (BLU); mean over the file's lines of this peptide [2] | normalised SPOT signal, Boehringer light units (BLU); mean over the file's lines of this peptide [3] | normalised SPOT signal, Boehringer light units (BLU); mean over the file's lines of this peptide [4] | normalised SPOT signal, Boehringer light units (BLU); mean over the file's lines of this peptide [5] | normalised SPOT signal, Boehringer light units (BLU); mean over the file's lines of this peptide [6] | normalised SPOT signal, Boehringer light units (BLU); mean over the file's lines of this peptide [7] |
| --- | --- | --- | --- | --- | --- | --- | --- |
| LAGIRLVPVLPILL [YLR235C 75-88] | 63.1 | 22.4 | 152 | 12800 | 22.2 | 2480 | 493 |
| LAAHKTKPSIPPKK [YPR171W 350-363] | 477 | 18.8 | 249 | 16.5 | 76.5 | 1730 | 36 |
| KTRNKPKPLWPQVK [YGR033C 56-69] | 1200 | 43.4 | 262 | 56.8 | 115 | 178 | 35 |
| KTVDKGLPMIPTYV [YDR516C 56-69] | 14.3 | 5 | 76.8 | 24.1 | 8310 | 11.9 | 20.1 |
| KVSSKYDPDNPNKD [YBR235W 48-61] | 127 | 23.8 | 434 | 95.8 | 31.3 | 44.7 | 32.1 |
| KTSTKAQPAEPQAE [YNL071W 132-145] | 84.2 | 3.7 | 167 | 72.7 | 6.5 | 162 | 43.6 |
| LASDKGLPMIPAFV [YCL040W 56-69] | 94.4 | 134 | 79.9 | 51.5 | 15200 | 48.3 | 62.8 |
| KVQIKKVPTDPSSS [YBR136W 25-38] | 1460 | 64.7 | 191 | 44.5 | 28.2 | 9.9 | 13.5 |
| KVLIKTLPVLPEAR [YNL271C 1679-1692] | 142 | 5.4 | 237 | 84.2 | 3050 | 251 | 0 |

Further lines, results first:

| normalised SPOT signal, Boehringer light units (BLU); mean over the file's lines of this peptide [1] | normalised SPOT signal, Boehringer light units (BLU); mean over the file's lines of this peptide [2] | normalised SPOT signal, Boehringer light units (BLU); mean over the file's lines of this peptide [3] | normalised SPOT signal, Boehringer light units (BLU); mean over the file's lines of this peptide [4] | normalised SPOT signal, Boehringer light units (BLU); mean over the file's lines of this peptide [5] | normalised SPOT signal, Boehringer light units (BLU); mean over the file's lines of this peptide [6] | normalised SPOT signal, Boehringer light units (BLU); mean over the file's lines of this peptide [7] | Binder |
| --- | --- | --- | --- | --- | --- | --- | --- |
| 457 | 0 | 496 | 200 | 49.9 | 180 | 8.7 | KVIRKGSPKSPAMV [YKL170W 23-36] |
| 41.8 | 14.3 | 132 | 3530 | 64100 | 4460 | 8470 | LAYERPLPDLPSTI [YKR027W 747-760] |
| 1240 | 67.6 | 359 | 44.3 | 34.1 | 179 | 38 | KTKKKTVPVKPLQL [YBL017C 684-697] |
| 179 | 28.5 | 116000 | 69.8 | 71.2 | 47.5 | 29.7 | LAPKREAPKPPANT [YJL095W 802-815] |
| 198 | 20 | 219 | 40.4 | 70.4 | 104 | 29.7 | KYSFKLVPPQPGSK [YBL085W 849-862] |
| 1120 | 24.3 | 503 | 160 | 119 | 234 | 44.4 | KVNFRRIPTGPDSP [YIL131C 136-149] |
| 100 | 39.6 | 246 | 34 | 55.5 | 6.9 | 34.1 | KYIIKTEPESPEED [YLR133W 510-523] |

Reference: article PMC314469, “Protein Interaction Networks by Proteome Peptide Scanning” (PLoS Biology, 2004)
